In patent publication US20160159910A1 (Genentech, published 2016):

How the values were obtained:
human B7-H4 [1] = molecular target: T1, human B7-H4 (human, UniProt Q7Z7D3 29-282); assay: Scatchard analysis, radioligand cell binding on MX-1 cells (endogenous human B7-H4)
T1 construct: On stably transfected 293 cells (recombinant) or on MX-1 / SKBR3 tumor cells (endogenous); the cell is named under assay; also called huB7-H4; hB7-H4
T1 sequence: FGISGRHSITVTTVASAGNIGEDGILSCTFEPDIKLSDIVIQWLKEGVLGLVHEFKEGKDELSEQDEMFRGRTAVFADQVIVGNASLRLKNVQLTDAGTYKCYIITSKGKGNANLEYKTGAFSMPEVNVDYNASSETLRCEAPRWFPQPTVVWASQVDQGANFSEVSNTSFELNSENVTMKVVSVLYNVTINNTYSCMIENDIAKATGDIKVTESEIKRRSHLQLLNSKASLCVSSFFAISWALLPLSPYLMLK
Experimental: Competition assay mixtures of 50 μL volume containing a fixed concentration of [I¹²⁵] labeled antibody and decreasing concentrations of serially diluted, unlabeled antibody were placed into 96-well plates. […] Cells were detached from the flask using Sigma Cell Dissociation Solution and were washed with binding buffer, which consisted of Dulbecco's Modified Eagle Medium (DMEM) with 1% bovine serum albumin (BSA), 300 mM human IgG and 0.1% sodium azide. The washed cells were added to the 96 well plates at a density of 100,000 cells in 0.2 mL of binding buffer. The final concentration of the [I¹²⁵] labeled antibody in each well was ˜250 pM. The final concentration of the unlabeled antibody in the competition assay ranged from 1000 nM through ten 2-fold dilution steps to a 0 nM buffer-only assay. Competition assays were carried out in triplicate. Competition assays were incubated for 2 hours at room temperature. […] The filters were counted on a Wallac Wizard 1470 gamma counter (PerkinElmer Life and Analytical Sciences Inc.; Wellesley, Mass.). The binding data was evaluated using NewLigand software (Genentech), which uses the fitting algorithm of Munson and Robard to determine the binding affinity of the antibody (Munson and Robard 1980).

[2] = molecular target: T2, B7-H4 (IgV; G28-F150 including spacer S151-V157)-irrelevant (Ig-C) chimeric membrane protein (construct-88) (human, UniProt Q7Z7D3 28-157); assay: FACS on 293 cells expressing the Ig-chimera with the B7-H4 Ig-V domain
T2 construct: also called B7-H4 (Ig-V):MolX (Ig-C, TM, CD); Ig-chimera expressing the B7-H4 Ig-V domain; not shown: Ig-C, transmembrane and cytoplasmic parts of the unnamed irrelevant protein (MolX) that display the domain on the cell; N-terminal Herpes-gD tag
T2 sequence: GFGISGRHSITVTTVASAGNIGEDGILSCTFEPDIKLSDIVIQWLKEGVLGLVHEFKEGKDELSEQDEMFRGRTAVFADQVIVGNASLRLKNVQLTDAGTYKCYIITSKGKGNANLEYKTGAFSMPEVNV
Text: Briefly, 293 cells were transiently transfected with constructs 88 & 88B using polyfect.

rat B7-H4 = molecular target: T3, rat B7-H4 (rat, UniProt Q501W4 29-282); assay: Scatchard analysis, radioligand cell binding on 293 cells expressing recombinant B7-H4
T3 construct: On stably transfected 293 cells; also called recombinant rat B7-H4
T3 sequence: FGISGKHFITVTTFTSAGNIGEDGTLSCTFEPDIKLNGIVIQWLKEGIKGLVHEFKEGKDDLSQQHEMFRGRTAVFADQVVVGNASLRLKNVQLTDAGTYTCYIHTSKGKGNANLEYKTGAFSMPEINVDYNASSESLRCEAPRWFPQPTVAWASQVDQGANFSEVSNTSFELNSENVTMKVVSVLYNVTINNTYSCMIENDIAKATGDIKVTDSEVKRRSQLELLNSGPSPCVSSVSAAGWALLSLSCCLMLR
Experimental: (§1) Competition assay mixtures of 50 μL volume containing a fixed concentration of [I¹²⁵] labeled antibody and decreasing concentrations of serially diluted, unlabeled antibody were placed into 96-well plates. […] Cells were detached from the flask using Sigma Cell Dissociation Solution and were washed with binding buffer, which consisted of Dulbecco's Modified Eagle Medium (DMEM) with 1% bovine serum albumin (BSA), […] and 0.1% sodium azide. The washed cells were added to the 96 well plates at a density of 100,000 cells in 0.2 mL of binding buffer. The final concentration of the [I¹²⁵] labeled antibody in each well was ˜250 pM. The final concentration of the unlabeled antibody in the competition assay ranged from 1000 nM through ten 2-fold dilution steps to a 0 nM buffer-only assay. Competition assays were carried out in triplicate. Competition assays were incubated for 2 hours at room temperature. After the 2-hour incubation, the competition assays were transferred to a Millipore Multiscreen filter plate (Billerica, Mass.) and washed 4 times with binding buffer to separate the free from bound [I¹²⁵] labeled antibody. The filters were counted on a Wallac Wizard 1470 gamma counter (PerkinElmer Life and Analytical Sciences Inc.; Wellesley, Mass.). The binding data was evaluated using NewLigand software (Genentech), which uses the fitting algorithm of Munson and Robard to determine the binding affinity of the antibody (Munson and Robard 1980).

mouse B7-H4 = molecular target: T4, mouse B7-H4 (mouse, UniProt Q7TSP5 29-283); assay: as above
T4 construct: On stably transfected 293 cells; also called muB7-H4; recombinant mouse B7-H4
T4 sequence: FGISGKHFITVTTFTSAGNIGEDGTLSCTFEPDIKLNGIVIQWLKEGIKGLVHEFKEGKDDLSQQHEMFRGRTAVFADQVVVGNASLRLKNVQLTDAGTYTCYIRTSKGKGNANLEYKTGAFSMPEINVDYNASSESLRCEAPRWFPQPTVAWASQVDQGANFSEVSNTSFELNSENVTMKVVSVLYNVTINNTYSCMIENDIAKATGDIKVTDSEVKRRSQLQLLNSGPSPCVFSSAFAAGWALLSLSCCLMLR
Experimental: as §1

human B7-H4 [3] = molecular target: T1, human B7-H4; assay: as above
Experimental: as §1

cynomolgus monkey B7-H4 = molecular target: T5, cynomolgus monkey B7-H4 (cynomolgus monkey, UniProt Q7Z7D3 29-282 (human entry)); assay: as above
T5 construct: On stably transfected 293 cells; also called cyno B7-H4; recombinant cynomolgus monkey B7-H4
T5 chain: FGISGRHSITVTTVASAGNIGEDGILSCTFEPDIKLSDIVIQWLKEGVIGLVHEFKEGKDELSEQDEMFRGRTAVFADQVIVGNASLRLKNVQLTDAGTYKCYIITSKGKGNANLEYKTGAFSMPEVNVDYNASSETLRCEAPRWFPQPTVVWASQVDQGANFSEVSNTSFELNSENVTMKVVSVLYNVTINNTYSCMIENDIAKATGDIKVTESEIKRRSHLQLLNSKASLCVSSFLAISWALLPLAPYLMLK
Experimental: as §1

- Kd (human B7-H4 [1]): 7.4 nM
- fold binding compared to mock transfected 293 cells [2]: ~44 fold
- Kd (rat B7-H4): 2.7 nM
- Kd (mouse B7-H4): 5 nM
- Kd (human B7-H4 [3]): 2.9 nM
- Kd (cynomolgus monkey B7-H4): 3.7 nM
B1: hu1D11.v1.9 varD (antibody)
heavy: not shown
light: DIQMTQSPSSLSASVGDRVTITCKASQGFNKYVAWYQQKPGKAPKLLIYYTSTLQPGVPSRFSGSGSGRDYTLTISSLQPEDFATYYCLQYGDLLYAFGQGTKVEIKRTVAAPSVFIFPPSDEQLKSGTASVVCLLNNFYPREAKVQWKVDNALQSGNSQESVTEQDSKDSTYSLSSTLTLSKADYEKHKVYACEVTHQGLSSPVTKSFNRGEC
notes: IgG1 / kappa; also called h1D11v1.9_VarD; h1D11v1.9varD
